Experimental data published in patent US20240309061A1.

How the values were obtained:
[1] = molecular target: IL-2Rβγ subunits on U2OS cells; experiment: cell-based or functional assay
[2] = molecular target: IL-2Rαβ subunits on U2OS cells; experiment: cell-based or functional assay
[3] = molecular target: Human IL-2Rβγ on CD8+ T and NK cells in whole blood (human) (UniProt P14784)
[4] = molecular target: Human IL-2Rβγ on CD8+ T and NK cells in whole blood (human) (UniProt P14784); remark: listed apart in the source
[5] = molecular target: Human IL-2Rβ, polyhistidine-tagged (human) (UniProt P14784); experiment: SPR (Biacore T200), ratio to human IL-2Rβ
Sequence of Human IL-2Rβ, polyhistidine-tagged (human) (P14784 27-239 limits assumed): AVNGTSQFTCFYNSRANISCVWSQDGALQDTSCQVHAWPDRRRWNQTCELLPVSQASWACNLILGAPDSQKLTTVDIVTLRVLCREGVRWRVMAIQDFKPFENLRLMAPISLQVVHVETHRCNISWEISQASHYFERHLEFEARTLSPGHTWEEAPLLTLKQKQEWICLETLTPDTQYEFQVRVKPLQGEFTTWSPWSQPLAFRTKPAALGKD

[6] = molecular target: Cynomolgus/Rhesus IL-2Rβ, polyhistidine-tagged (cynomolgus/rhesus) (UniProt Q38J85); experiment: SPR (Biacore T200), ratio to human IL-2Rβ
Sequence of Cynomolgus/Rhesus IL-2Rβ, polyhistidine-tagged (cynomolgus/rhesus) (Q38J85 27-240 limits assumed): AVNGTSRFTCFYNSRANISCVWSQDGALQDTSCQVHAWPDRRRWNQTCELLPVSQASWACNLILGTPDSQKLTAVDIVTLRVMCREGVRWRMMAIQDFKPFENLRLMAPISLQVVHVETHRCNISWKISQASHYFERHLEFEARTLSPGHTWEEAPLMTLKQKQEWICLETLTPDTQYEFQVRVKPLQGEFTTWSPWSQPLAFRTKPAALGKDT

[7] = molecular target: Rhesus IL-2Rα, polyhistidine-tagged (rhesus) (UniProt Q5MNY4); experiment: SPR (Biacore T200), His-tagged receptor
Sequence of Rhesus IL-2Rα, polyhistidine-tagged (rhesus) (Q5MNY4 22-240 limits assumed): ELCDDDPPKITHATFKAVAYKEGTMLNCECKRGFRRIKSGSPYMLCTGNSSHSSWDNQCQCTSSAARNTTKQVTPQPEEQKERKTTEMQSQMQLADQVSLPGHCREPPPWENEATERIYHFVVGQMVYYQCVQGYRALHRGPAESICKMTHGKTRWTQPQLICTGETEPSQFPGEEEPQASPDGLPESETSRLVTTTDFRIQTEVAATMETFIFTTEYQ

[8] = molecular target: Human IL-2Rβ, polyhistidine-tagged (human) (UniProt P14784); experiment: SPR (Biacore T200), His-tagged receptor
[9] = molecular target: Cynomolgus IL-2Rα, polyhistidine-tagged (cynomolgus) (UniProt H6WS54); experiment: SPR (Biacore T200), His-tagged receptor
[10] = molecular target: Rat IL-2Rα, polyhistidine-tagged (rat) (UniProt P26897); experiment: SPR (Biacore T200), His-tagged receptor
Sequence of Rat IL-2Rα, polyhistidine-tagged (rat) (P26897 22-235 limits assumed): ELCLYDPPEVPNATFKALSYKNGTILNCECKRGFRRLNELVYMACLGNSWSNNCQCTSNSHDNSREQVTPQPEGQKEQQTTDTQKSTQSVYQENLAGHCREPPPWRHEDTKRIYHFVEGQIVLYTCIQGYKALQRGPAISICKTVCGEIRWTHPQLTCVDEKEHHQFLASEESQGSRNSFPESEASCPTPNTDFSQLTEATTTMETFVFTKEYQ

[11] = molecular target: Human IL-2Rα, polyhistidine-tagged (human) (UniProt P01589); experiment: SPR (Biacore T200), His-tagged receptor
Sequence of Human IL-2Rα, polyhistidine-tagged (human) (P01589 22-213 limits assumed): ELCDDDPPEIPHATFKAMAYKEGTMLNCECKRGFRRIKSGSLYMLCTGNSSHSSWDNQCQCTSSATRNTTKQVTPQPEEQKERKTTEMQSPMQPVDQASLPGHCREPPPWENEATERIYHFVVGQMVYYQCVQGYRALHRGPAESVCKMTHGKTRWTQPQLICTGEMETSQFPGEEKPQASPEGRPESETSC

[12] = molecular target: Cynomolgus/Rhesus IL-2Rβ, polyhistidine-tagged (cynomolgus/rhesus) (UniProt Q38J85); experiment: SPR (Biacore T200), His-tagged receptor
[13] = molecular target: Mouse IL-2Rα, polyhistidine-tagged (mouse) (UniProt P01590); experiment: SPR (Biacore T200), His-tagged receptor
Sequence of Mouse IL-2Rα, polyhistidine-tagged (mouse) (P01590 22-236 limits assumed): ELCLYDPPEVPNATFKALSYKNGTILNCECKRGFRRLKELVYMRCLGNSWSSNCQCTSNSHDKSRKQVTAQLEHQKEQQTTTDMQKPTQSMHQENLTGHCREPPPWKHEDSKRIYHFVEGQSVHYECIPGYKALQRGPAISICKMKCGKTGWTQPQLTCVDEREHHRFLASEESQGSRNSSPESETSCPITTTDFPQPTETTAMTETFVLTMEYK

[14] = molecular target: Rhesus IL-2Rα, polyhistidine-tagged (rhesus) (UniProt Q5MNY4); experiment: SPR (Biacore T200), ratio to human IL-2Rα
[15] = molecular target: Cynomolgus IL-2Rα, polyhistidine-tagged (cynomolgus) (UniProt H6WS54); experiment: SPR (Biacore T200), ratio to human IL-2Rα
[16] = molecular target: Rat IL-2Rα, polyhistidine-tagged (rat) (UniProt P26897); experiment: SPR (Biacore T200), ratio to human IL-2Rα
[17] = molecular target: Human IL-2Rα, polyhistidine-tagged (human) (UniProt P01589); experiment: SPR (Biacore T200), ratio to human IL-2Rα
[18] = molecular target: Mouse IL-2Rα, polyhistidine-tagged (mouse) (UniProt P01590); experiment: SPR (Biacore T200), ratio to human IL-2Rα
[19] = molecular target: Rhesus IL-2Rβγ on CD8+ T and NK cells in whole blood (rhesus monkey)
[20] = molecular target: Rhesus IL-2Rβγ on CD8+ T and NK cells in whole blood (rhesus monkey); remark: listed apart in the source

Sequence of Human IL-2Rβγ on CD8+ T and NK cells in whole blood (human) (P14784 27-551, chain 1 of 2): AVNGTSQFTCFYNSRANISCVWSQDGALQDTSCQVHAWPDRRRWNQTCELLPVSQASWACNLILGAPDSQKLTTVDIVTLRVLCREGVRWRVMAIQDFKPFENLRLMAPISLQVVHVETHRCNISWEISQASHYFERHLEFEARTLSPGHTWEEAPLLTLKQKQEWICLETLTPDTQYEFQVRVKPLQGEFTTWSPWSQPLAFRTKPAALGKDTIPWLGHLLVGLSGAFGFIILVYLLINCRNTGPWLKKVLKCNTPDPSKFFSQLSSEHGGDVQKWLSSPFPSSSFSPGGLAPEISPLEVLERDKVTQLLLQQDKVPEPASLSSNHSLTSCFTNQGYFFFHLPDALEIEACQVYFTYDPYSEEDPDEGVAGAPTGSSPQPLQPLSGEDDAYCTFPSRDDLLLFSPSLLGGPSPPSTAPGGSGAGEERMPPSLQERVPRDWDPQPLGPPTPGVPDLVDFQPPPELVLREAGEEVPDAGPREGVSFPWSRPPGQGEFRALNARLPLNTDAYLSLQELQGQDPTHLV
Sequence of Human IL-2Rβγ on CD8+ T and NK cells in whole blood (human) (P31785 23-369, chain 2 of 2, further chain): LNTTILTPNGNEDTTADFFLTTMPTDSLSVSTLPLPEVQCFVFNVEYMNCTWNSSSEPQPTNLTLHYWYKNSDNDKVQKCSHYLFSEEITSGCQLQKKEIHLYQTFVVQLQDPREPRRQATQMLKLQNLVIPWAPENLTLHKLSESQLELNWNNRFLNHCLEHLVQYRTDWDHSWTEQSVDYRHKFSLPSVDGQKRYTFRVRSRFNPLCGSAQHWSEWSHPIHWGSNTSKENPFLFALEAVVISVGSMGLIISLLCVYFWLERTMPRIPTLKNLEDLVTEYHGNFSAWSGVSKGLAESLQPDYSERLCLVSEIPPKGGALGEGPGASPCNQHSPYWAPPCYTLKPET

R38Q/Y45F-IL-2 Fc, bivalent (Fc fusion)
Ave. EC50 of engaging IL-2Rβγ subunits (receptor engagement study, N = 3) [1]: 3.5 nM | Ave. EC50 of engaging IL-2Rαβ subunits (receptor engagement study, N = 3) [2]: 7 nM

R38Q/Y45F-IL-2 Fc, monovalent (from UniProt P01857 104-329) (Fc fusion)
Ave. EC50 of engaging IL-2Rβγ subunits (receptor engagement study, N = 3) [1]: 2 nM | Ave. EC50 of engaging IL-2Rαβ subunits (receptor engagement study, N = 3) [2]: 400 nM

WT-IL-2 Fc (from UniProt P01857 104-329) (Fc fusion)
EC50; pSTAT5 normalized gMFI in NK cells, human whole blood (Hu donor 2), flow cytometry [3]: 0.35 nM | EC50; pSTAT5 normalized gMFI in CD8 cells, human whole blood (Hu donor 2), flow cytometry [4]: 1.41 nM | KD/KD (hu) [5]: 1 | KD/KD (hu) [6]: 1.4 | Kd [7]: 49 nM | Kd [8]: 940 nM | Kd [9]: 30 nM | Kd [10]: 87 nM | Kd [11]: 28 nM | Kd [12]: 1300 nM | Kd [13]: 29 nM | KD/KD (hu) [14]: 1.8 | KD/KD (hu) [15]: 1.1 | KD/KD (hu) [16]: 3.1 | KD/KD (hu) [17]: 1 | KD/KD (hu) [18]: 1 | EC50; pSTAT5 normalized gMFI in NK cells, rhesus whole blood (Rh donor 20-1068), flow cytometry [19]: 2.44 nM | EC50; pSTAT5 normalized gMFI in CD8 cells, rhesus whole blood (Rh donor 20-1068), flow cytometry [20]: 4.05 nM

Y45R-IL-2 Fc, bivalent (Fc fusion)
Ave. EC50 of engaging IL-2Rβγ subunits (receptor engagement study, N = 3) [1]: 2.3 nM | Ave. EC50 of engaging IL-2Rαβ subunits (receptor engagement study, N = 3) [2]: 30 nM
